Assay results taken from a protein production outcome set (Wang et al. 2014).

Test: label from the status in PepcDB records

| Sequence | protein production |
| --- | --- |
| MGHHHHHHSHMVSDIRRFLSAFHEPQVGLIQAAQQLLCDEQAPQRQRLLADLLHNVSQNIAAETRAEDPPWFEGLESRFQSKSGYLRYSCESRIRSYLREVSSYPSTVGAEAQEEFLRVLGSMCQRLRSMQYNGSYFDRGAKGGSRLCTPEGWFSCQGPFDMDSCLSRHSINPYSNRESRILFSTWNLDHIIEKKRTIIPTLVEAIKEQDGREVDWEYFYGLLFTSENLKLVHIVCHKKTTHKLNCDPSRIYKPQTRLKRKQPVRKRQ | failed |
| MGHHHHHHSHPQSAAKPGLHFIDQHRAALIARVTNVEWLLDALYGKVLTDEQYQAVRAEPTNPSKMRKLFSFTPAWNWTCKDLLLQALRESQSYLVEDLERS | failed |
| MGHHHHHHSHTGKTTFSATIHALEGGVVADCDVDAPNLHILLKPQILKAEDFIASKKARIMPEKCSSCGLCYDLCRFGAVVAEDGYYVDEKKCEGCAFCFNVCPERAIEMENVKTGDLYVSKTEWGYFVHARLKPGEENTGRLVTEVKNRAKEIAEESNAEFLIVDSAPGVGCPVMASLTGVDAAIIVTEPTVSGLSDMLRILELCEHFRIRPFVVVNKFDLNVNIASEIESYCSENGVEFAGRVPFDKAIPEQIANLNFPFSGKAADKMVEIWKKLRE | not failed |
| MGHILDSRRCALSVTQQQVLDSLARIKSPRGVALPNANVLSAISASDGKVFFSINVDAAEARAWEAVRAEAEAAVRAIPGATTVMVALTAERKPGSAPPPPPTPSRGTPGVQPVHAHKPPQGGGSPMARQSEIPGVAAVIAVASGKGGVGKSTTALNLALGLRDLGLKVGLLDADIYGPSVPRLTGLRDKPELDGERKMIPLRRFGLAIMSIGFLVEEETAMIWRGPMVMSAVTQMLRDVAWGSLDVLVVDMPPGTGDAQLTLAQNVPLKGAVIVSTPQDLSLIDARRGLAMFRKVNVPVLGIVENMSYFQCPHCGTKSDIFGHGGARHEAEKLGVPFLGEIPLHMAIRATSDAGNPVVDSEPDGPHAAIYRAIAGQVRDQLKGAIAAA | failed |
| MGHNGIINYEVDVQDNKIEDLKILKHSETSGIFNQVIDKLKQNIITEQSFNVDTISGATVMTQALLKSADKAVTDAGVDVQLEHHHHHH | not failed |
| MGHSGREERIKDIFKELTSKELTPGLLLTLQKLAQKPNTNLEQFIASCKALTKLSSNNPIIFNELLELLKNKSEEDSTGPKKIAPSINKRKKFKIQLDLDDNEDELDSPVQKKPAPTRTLFKRIDKLKAKQLRQYSPTVKDPSPNSEQQTQNGHAETKDYEPTRSEVVEEDREWYDNDDDYGNLVPEPLSELPEEAKLLPVIRNIDNDDALRNTVQLYPIPLKQRMEWIPPFLSKFALENKVPTSIIIGSISETSSQVSALSMVNPFRNPDSEFSANAKRGSKLVALRRINMEHIQQSRDNTTVLNTAMGEVLGLENNNKAKDKSNQKICDDTALFTPSKDDIKHTKEQLPVFRCRSQLLSLIRENQVVVIIGETGSGKTTQLAQYLYEEGYANDRGKSIVVTQPRRVAAISVAKRVAMEMQVPLGKEVGYSIRFEDVTDSECTKLKFVTDGILLRETLLDDTLDKYSCVIIDEAHERSLNTDILLGFFKILLARRRDLKLIITSATMNAKKFSAFFGNAPQFTIPGRTFPVQTIYTSNPVQDYVEAAVSQAVKIHLANDCSSGDILIFMTGQEDIETTFDTLQEKFLQVYSKKFGTANFEEINDIEILPIYSALPADLQFKIFQDLHGTKRKIIIATNIAETSLTIKGIRYVIDCGYSKLKVYNPKIGLDSLVITPISKANADQRSGRAGRTAPGTAYRLYTEDTFKEDMYLQTIPEIQRTNLSNTLLLLKSLDVTDELSKFPFIDKPPLQTFLSSLYELWFIGAIDTSGQLTPLGLQMAKFPLQPSLSKILLIAVRNGCSDEMLTIVSMLSVPQVFYRPKERQKEADIARNKFFIAKSDHLTLLNVFEQWRANNFSSHWCNKHFVQYKSLVRARDIRDQLLTILKSQKIPVISSGKDWDIIKKCICSGFAHQAAKITGLRNYVHLKTGVSVQLHPTSALHGLGDLPPYVVYHELLMTSKEYICCVTSVDPFWLMEYGGLLYDIKRIKNDQEATTTGLFGEHYEHTLDKVEDDIDINIRRCKDMRDSVIQELKMTDNSNKEDKKQKTKKQNILNGKENSMKPFKRRKPFF | failed |
| MGIDPVTHRATHKTKRVEATANTFKAVATEWLKEVHQKAVVEEHYNRNVRRLEQHAFPKLGRRPISEIEPSDILEPLRDIAKTGRRETAKRVKTLIGQVFRYTVSTGRAQRDMTADIRGILPALEHHHHHH | failed |
| MGIFGWRTASLLKKAWQLYQQQHWSKAQQCARQVIEQTPQPEAYYLLGLIAEQLARPLEARTAYEQAIALDPWHAPSHYRLAVVLHALLQQPAAAVPHYQRALEVKPDWVEAHSNLGNAYLDLGDTEGAIACYQKALSLNPDLPTTLYNLGLCLHAQGKLTEATACYEQSLYLEPGQADVHNNLGSAYLELKNYTAATVHFQAALGANPELLVAHYNLGYALHLQGNLAAARDRYQEVLLRDNKHLRTLLQLGQICLAEEDLTGAIGYYQRCLSLDPLNSAAQAGLATALLESGDPQAALPYLRQAVALNPEAEDVRLKFALVLLMLEQFREGWQEYEWRWQQPTGGLRNYPQPRWQGQSLKGKTLFVYSEQGFRDCIQFVRLLPLMAKHAQRIIFEAYPPLVRLCQTLPGIEVMSTEETPPPFDYHTPLLSLPRYLGIDQDHFPKFKPYFPLPTRPPHPLFKVSKPRVGLVWASHSQTRTTVQRSCPLEYFLPLLQEFDVQWYSLQKERSPTEAEQLRQVGVIDCQPYMGDFLDTALLIQQLDAVVTIDTAVAHLAGALGKPLWILLPFVADWRWFWRRSRSPWYPSAELIRQPQRGDWPGAIAQLRSALQAHYRTRCNGIPN | failed |
| MGIIERIKEIEAEMARTQKNKATEYHLGQLKAKIAKLRTQLLEPPKGASGGGEGFEVTKYGHGRVALIGFPSVGKSTLLTMLTGTHSEAASYEFTTLTCIPGVIHYNDTKIQLLDLPGIIEGASEGKGRGRQVIAVAKSSDLVLMVLDASKSEGHRQILTKELEAVGLRLNKTPPQIYFKKKKTGGISFNTTAPLTHIDEKLCYQILHEYKIHNAEVLFRENATVDDFIDVIEGNRKYIKCVYVYNKIDVVGIDDVDRLSRQPNSIVISCNLKLNLDRLLARMWDEMGLVRVYSKPQGQQPDFDEPFVLSSDRGGCTVEDFCNHVHRTLVKDMKYALVWGTSTRHNPQNCGLSQHLEDEDVVQIVKKKERDEGGRGRFKSHSNAPARIADREKKAPLKQ | failed |
| MGILDEIMNQEHFDIKTSLDYINEYEKLLPFDSEIHTARAVTYFFGEEYKLAEEHIRKALKFRPNNYDNNFYLANILIAMGEYPDAIKSAVLSVTFLKHFAKIQGYDYINDKLFYYNEQVKTLIEYCIENIKDTNVLEDLKRFFGFIELSIAKFPVCFYGDKWNILVGEYLNKDLNSEYNDYICFYSDTYNNMLSDFQKKLYTVINNSEISSICPIESFKSMTAKEFSLDNGKYIIPIATTEYNQVIDFKIKNTNFKSQQVDPPGFFKYYRVNNGISLNSDKDVIIGKPIKLGFKEKNKKLVFTIFIDALSQKYLLETKYKSMPYTKAFFDKGIIFENCYSAGEWTYPSLTSVVTGLYTTNHHFLHSSAGYKYPDDIDLFSEIMKKNEYFTANISGTYALAPYSSGFRGFDRTVFKNSLGFSDSVIINDAIKHIESFKETNQFVFMSLSDVHKILDDIENYSVNYDIVNQTSLDIETSLSKRSSFVSAWQKYDEEAIKKYDVALRELDRQLKGIYDYILQNYSEEEYLISIFSDHGASFLGKDDFLLKSNITNSVLMVRGSGSASNGNTEYISNMDLIPIILKLANIEHDLSKYDCVLPKTLGGKGREFTYSESIYPGQTYKAMVNNDKYCYILETKGITDIDGTINFDEYSDSVFDKKEDKEVKDNDILEYYREIVYNHIKRNIKY | failed |
| MGILDRFEKGLENVVNGAFAKAFRSQVEPVELAGALRREADNKAAVVSRGRTLTANHYSIELSPTDFDRLSGLENELRSDLRQVIGDHAVEQAYSFVGPVSVEFVEAEDLDTGMYRVVSSTQRPDGSPAAQPANRGGYDPVSRSHNIVGEGQANSGSRPVPPRRTPEPAPARPAATSRPASAPVRQAAPARSRTISASVTIHGQDYELHQGTNVFGRSSSSSDYVIDDPGVSRRHFEITVERDHAVANDLGSTNGTLLRGRKLTSANLSDGDVLMAGDAEVRYHENEQDAQ | failed |
